Article PMC3136212, “Identification of the DNA-Binding Domains of Human Replication Protein A That Recognize G-Quadruplex DNA”

Tests used:
RPA-C [1] = molecular target: T1, RPA-C (human, UniProt P27694 432-595, V435T;W442Q;V465T;V469T;F523S;F567S;I571T); test: FP; 10 mM NaCl; FP: 0.060 uM FAM-oligo, 10-1500 mM NaCl, room temperature; CD: Buffer A 25 mM Tris pH 7.5, 2 mM MgCl2, 6% glycerol, 1 mM DTT, 100 (or 10) mM NaCl, room temperature; settings: protein: recombinant; tags: N-terminal His, thrombin-cleaved; label: 5' 6-FAM
RPA-DE [2] = molecular target: T2, RPA-DE (human, UniProt P15927;P35244 43-171;1-121); test: as above; settings: protein: recombinant; tags: N-terminal His, thrombin-cleaved; copies: 1;1; label: 5' 6-FAM
RPA-CDE-core [3] = molecular target: T3, RPA-CDE-core (human, UniProt P27694;P15927;P35244 436-616;43-171;1-121); test: as above; parameters: unit not given here; settings: protein: recombinant, tags: N-terminal His, thrombin-cleaved, copies: 1;1;1, label: 5' 6-FAM
RPA-AB [4] = molecular target: T4, RPA-AB (human, UniProt P27694 181-441); test: FP; 100 mM NaCl; FP: 0.060 uM FAM-oligo, 10-1500 mM NaCl, room temperature; CD: Buffer A 25 mM Tris pH 7.5, 2 mM MgCl2, 6% glycerol, 1 mM DTT, 100 (or 10) mM NaCl, room temperature; parameters: unit not given here; settings: protein: recombinant, tags: N-terminal His6, thrombin-cleaved, label: 5' 6-FAM
RPA-CDE-core [5] = molecular target: T3, RPA-CDE-core; test: as above; parameters: unit not given here; settings: protein: recombinant, tags: N-terminal His, thrombin-cleaved, copies: 1;1;1, label: 5' 6-FAM
[6] = molecular target: T5, RPA (full-length heterotrimer RPA1/RPA2/RPA3) (human, UniProt P27694;P15927;P35244 1-616;1-270;1-121); test: FP; 500 mM NaCl; FP: 0.060 uM FAM-oligo, 10-1500 mM NaCl, room temperature; CD: Buffer A 25 mM Tris pH 7.5, 2 mM MgCl2, 6% glycerol, 1 mM DTT, 100 (or 10) mM NaCl, room temperature; settings: protein: recombinant; copies: 1;1;1; label: 5' 6-FAM
RPA-DE [7] = molecular target: T2, RPA-DE; test: CD titration; 10 mM NaCl; stabilizes antiparallel G4; FP: 0.060 uM FAM-oligo, 10-1500 mM NaCl, room temperature; CD: Buffer A 25 mM Tris pH 7.5, 2 mM MgCl2, 6% glycerol, 1 mM DTT, 100 (or 10) mM NaCl, room temperature; settings: protein: recombinant; tags: N-terminal His, thrombin-cleaved; copies: 1;1; intramolecular G4
RPA-CDE-core [8] = molecular target: T3, RPA-CDE-core; test: CD titration; 100 mM NaCl; unfolds G4, complete at protein:DNA 2; FP: 0.060 uM FAM-oligo, 10-1500 mM NaCl, room temperature; CD: Buffer A 25 mM Tris pH 7.5, 2 mM MgCl2, 6% glycerol, 1 mM DTT, 100 (or 10) mM NaCl, room temperature; settings: protein: recombinant; tags: N-terminal His, thrombin-cleaved; copies: 1;1;1; intramolecular G4
RPA-C [9] = molecular target: T1, RPA-C; test: CD titration; 10 mM NaCl; 254 nm peak decreases, 292 nm unchanged; FP: 0.060 uM FAM-oligo, 10-1500 mM NaCl, room temperature; CD: Buffer A 25 mM Tris pH 7.5, 2 mM MgCl2, 6% glycerol, 1 mM DTT, 100 (or 10) mM NaCl, room temperature; settings: protein: recombinant; tags: N-terminal His, thrombin-cleaved; intramolecular G4
RPA-C [10] = molecular target: T1, RPA-C; test: FP; 10 mM NaCl; FP: 0.060 uM FAM-oligo, 10-1500 mM NaCl, room temperature; CD: Buffer A 25 mM Tris pH 7.5, 2 mM MgCl2, 6% glycerol, 1 mM DTT, 100 (or 10) mM NaCl, room temperature; parameters: unit not given here; settings: protein: recombinant, tags: N-terminal His, thrombin-cleaved, label: 5' 6-FAM
RPA-AB [11] = molecular target: T4, RPA-AB; test: FP; 500 mM NaCl; FP: 0.060 uM FAM-oligo, 10-1500 mM NaCl, room temperature; CD: Buffer A 25 mM Tris pH 7.5, 2 mM MgCl2, 6% glycerol, 1 mM DTT, 100 (or 10) mM NaCl, room temperature; settings: protein: recombinant, tags: N-terminal His6, thrombin-cleaved, label: 5' 6-FAM
RPA-CDE-core [12] = molecular target: T3, RPA-CDE-core; test: as above; settings: protein: recombinant, tags: N-terminal His, thrombin-cleaved, copies: 1;1;1, label: 5' 6-FAM
RPA-AB [13] = molecular target: T4, RPA-AB; test: FP; 1250 mM NaCl; FP: 0.060 uM FAM-oligo, 10-1500 mM NaCl, room temperature; CD: Buffer A 25 mM Tris pH 7.5, 2 mM MgCl2, 6% glycerol, 1 mM DTT, 100 (or 10) mM NaCl, room temperature; parameters: unit not given here; settings: protein: recombinant; tags: N-terminal His6, thrombin-cleaved; label: 5' 6-FAM
RPA-CDE-core [14] = molecular target: T3, RPA-CDE-core; test: as above; parameters: unit not given here; settings: protein: recombinant; tags: N-terminal His, thrombin-cleaved; copies: 1;1;1; label: 5' 6-FAM
RPA-AB [15] = molecular target: T4, RPA-AB; test: FP; 1500 mM NaCl; FP: 0.060 uM FAM-oligo, 10-1500 mM NaCl, room temperature; CD: Buffer A 25 mM Tris pH 7.5, 2 mM MgCl2, 6% glycerol, 1 mM DTT, 100 (or 10) mM NaCl, room temperature; parameters: unit not given here; settings: protein: recombinant; tags: N-terminal His6, thrombin-cleaved; label: 5' 6-FAM
[16] = molecular target: T5, RPA (full-length heterotrimer …); test: FP; 500 mM NaCl; stoichiometric; FP: 0.060 uM FAM-oligo, 10-1500 mM NaCl, room temperature; CD: Buffer A 25 mM Tris pH 7.5, 2 mM MgCl2, 6% glycerol, 1 mM DTT, 100 (or 10) mM NaCl, room temperature; parameters: unit not given here; settings: protein: recombinant; copies: 1;1;1; label: 5' 6-FAM
[17] = molecular target: T5, RPA (full-length heterotrimer …); test: competition; FP, 0-10 uM unlabeled vs 60 nM FAM-Comp; FP: 0.060 uM FAM-oligo, 10-1500 mM NaCl, room temperature; CD: Buffer A 25 mM Tris pH 7.5, 2 mM MgCl2, 6% glycerol, 1 mM DTT, 100 (or 10) mM NaCl, room temperature; settings: protein: recombinant; copies: 1;1;1
RPA-CDE-core [18] = molecular target: T3, RPA-CDE-core; test: as above; settings: protein: recombinant; tags: N-terminal His, thrombin-cleaved; copies: 1;1;1
RPA-DE [19] = molecular target: T2, RPA-DE; test: FP; 10 mM NaCl; FP: 0.060 uM FAM-oligo, 10-1500 mM NaCl, room temperature; CD: Buffer A 25 mM Tris pH 7.5, 2 mM MgCl2, 6% glycerol, 1 mM DTT, 100 (or 10) mM NaCl, room temperature; parameters: unit not given here; settings: protein: recombinant; tags: N-terminal His, thrombin-cleaved; copies: 1;1; label: 5' 6-FAM; intramolecular G4, antiparallel at 100 mM NaCl, mixed/parallel at 10 mM NaCl
[20] = molecular target: T5, RPA (full-length heterotrimer …); test: FP; 1250 mM NaCl; FP: 0.060 uM FAM-oligo, 10-1500 mM NaCl, room temperature; CD: Buffer A 25 mM Tris pH 7.5, 2 mM MgCl2, 6% glycerol, 1 mM DTT, 100 (or 10) mM NaCl, room temperature; parameters: unit not given here; settings: protein: recombinant; copies: 1;1;1; label: 5' 6-FAM; intramolecular G4, antiparallel at 100 mM NaCl, mixed/parallel at 10 mM NaCl
[21] = molecular target: T5, RPA (full-length heterotrimer …); test: FP; 1500 mM NaCl; FP: 0.060 uM FAM-oligo, 10-1500 mM NaCl, room temperature; CD: Buffer A 25 mM Tris pH 7.5, 2 mM MgCl2, 6% glycerol, 1 mM DTT, 100 (or 10) mM NaCl, room temperature; parameters: unit not given here; settings: protein: recombinant; copies: 1;1;1; label: 5' 6-FAM; intramolecular G4, antiparallel at 100 mM NaCl, mixed/parallel at 10 mM NaCl
[22] = molecular target: T5, RPA (full-length heterotrimer …); test: FP; 500 mM NaCl; stoichiometric (equilibrium only at 1250 mM); FP: 0.060 uM FAM-oligo, 10-1500 mM NaCl, room temperature; CD: Buffer A 25 mM Tris pH 7.5, 2 mM MgCl2, 6% glycerol, 1 mM DTT, 100 (or 10) mM NaCl, room temperature; settings: protein: recombinant; copies: 1;1;1; label: 5' 6-FAM; intramolecular G4, antiparallel at 100 mM NaCl, mixed/parallel at 10 mM NaCl
[23] = intramolecular G4, antiparallel at 100 mM NaCl, mixed/parallel at 10 mM NaCl

T3 sequence (P27694 436-616, chain 1 of 3): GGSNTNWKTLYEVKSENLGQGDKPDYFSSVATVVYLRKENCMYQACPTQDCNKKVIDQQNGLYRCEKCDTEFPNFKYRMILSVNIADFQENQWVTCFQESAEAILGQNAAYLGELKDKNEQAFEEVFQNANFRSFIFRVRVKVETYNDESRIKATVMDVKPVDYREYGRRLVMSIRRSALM
T3 sequence (P15927 43-171, chain 2 of 3): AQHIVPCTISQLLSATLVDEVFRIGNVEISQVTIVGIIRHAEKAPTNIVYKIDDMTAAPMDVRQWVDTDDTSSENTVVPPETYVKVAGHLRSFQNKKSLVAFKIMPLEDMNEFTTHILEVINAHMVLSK
T3 sequence (P35244 whole entry, chain 3 of 3): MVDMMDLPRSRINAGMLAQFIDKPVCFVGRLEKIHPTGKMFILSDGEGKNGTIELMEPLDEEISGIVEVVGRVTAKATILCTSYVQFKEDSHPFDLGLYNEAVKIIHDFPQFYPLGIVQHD
T2 sequence (P15927 43-171, chain 1 of 2): as the sequence (P15927 43-171, chain 2 of 3) above
T2 sequence (P35244 whole entry, chain 2 of 2): as the sequence (P35244 whole entry, chain 3 of 3) above
T5 sequence (P27694 whole entry, chain 1 of 3): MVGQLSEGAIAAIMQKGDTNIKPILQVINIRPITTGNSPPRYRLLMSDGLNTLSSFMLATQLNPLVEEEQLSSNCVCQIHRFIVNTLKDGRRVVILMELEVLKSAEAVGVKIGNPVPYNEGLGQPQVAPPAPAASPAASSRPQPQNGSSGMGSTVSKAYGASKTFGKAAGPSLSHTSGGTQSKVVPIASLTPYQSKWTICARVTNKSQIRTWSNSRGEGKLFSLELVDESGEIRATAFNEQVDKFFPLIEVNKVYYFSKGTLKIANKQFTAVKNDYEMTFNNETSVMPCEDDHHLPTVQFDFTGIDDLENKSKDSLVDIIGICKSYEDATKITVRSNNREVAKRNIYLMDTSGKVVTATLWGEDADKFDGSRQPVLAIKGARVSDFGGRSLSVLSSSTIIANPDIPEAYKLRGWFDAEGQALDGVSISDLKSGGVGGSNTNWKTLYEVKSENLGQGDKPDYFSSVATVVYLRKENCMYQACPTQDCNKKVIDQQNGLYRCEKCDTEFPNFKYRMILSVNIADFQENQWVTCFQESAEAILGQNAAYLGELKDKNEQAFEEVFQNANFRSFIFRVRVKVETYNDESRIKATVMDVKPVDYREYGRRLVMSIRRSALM
T5 sequence (P15927 whole entry, chain 2 of 3): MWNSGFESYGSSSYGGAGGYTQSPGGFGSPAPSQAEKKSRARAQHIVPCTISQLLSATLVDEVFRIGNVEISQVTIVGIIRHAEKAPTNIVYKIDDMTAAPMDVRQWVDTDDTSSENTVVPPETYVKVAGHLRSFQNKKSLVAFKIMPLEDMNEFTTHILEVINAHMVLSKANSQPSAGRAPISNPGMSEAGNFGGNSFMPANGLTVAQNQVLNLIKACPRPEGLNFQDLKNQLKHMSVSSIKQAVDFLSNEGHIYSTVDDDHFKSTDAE
T5 sequence (P35244 whole entry, chain 3 of 3): as the sequence (P35244 whole entry, chain 3 of 3) above
T1 sequence (P27694 432-595 V435T/W442Q/V465T/V469T/F523S/F567S/I571T): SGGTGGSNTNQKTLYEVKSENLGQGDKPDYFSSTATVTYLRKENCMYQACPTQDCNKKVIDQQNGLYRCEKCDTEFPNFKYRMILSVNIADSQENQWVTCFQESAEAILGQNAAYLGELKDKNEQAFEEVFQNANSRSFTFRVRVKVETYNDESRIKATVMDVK
T4 sequence (P27694 181-441): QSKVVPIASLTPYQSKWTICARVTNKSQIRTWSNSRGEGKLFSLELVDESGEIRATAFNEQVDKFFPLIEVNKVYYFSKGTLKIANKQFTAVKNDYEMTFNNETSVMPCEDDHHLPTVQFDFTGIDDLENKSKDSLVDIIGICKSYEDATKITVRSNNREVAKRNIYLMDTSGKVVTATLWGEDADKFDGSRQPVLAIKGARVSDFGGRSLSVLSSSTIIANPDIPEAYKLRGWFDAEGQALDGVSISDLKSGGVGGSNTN

With AAAAAAAAAAAAAAAAAAAAAAA (ssDNA, 18-carbon spacer (sp18) at 5' end) [polyA] the binding result (RPA-C [1]) was “no binding”, the binding result (RPA-DE [2]) was “no binding” and the Kd (RPA-CDE-core [3]) was 0.53. It also gave a Kd (RPA-AB [4]) of 1.83, a Kd (RPA-CDE-core [5]) of 5.88 and a Kd [6] of 0.17.

TAGGGGAAGGGTTGGAGTGGGTT (structured_DNA) [Gq23 (CD, unlabeled)]: binds (RPA-DE [7]); binds (RPA-CDE-core [8]); binds (RPA-C [9]).

ATCCCCTTCCCAACCTCACCCAA (ssDNA, 18-carbon spacer (sp18) at 5' end) [Anti (Comp)] was tested, and the binding result (RPA-DE [2]) was “no binding”, the Kd (RPA-C [10]) was 3.32 and the Kd (RPA-CDE-core [3]) was 0.22. The Kd (RPA-AB [4]) was 0.66, the Kd (RPA-CDE-core [5]) was 0.42 and the Kd (RPA-AB [11]) was 1.79. The Kd (RPA-CDE-core [12]) was 0.75, the Kd (RPA-AB [13]) was 2.65 and the Kd (RPA-CDE-core [14]) was 2.81. The Kd (RPA-AB [15]) was 2.45 and the Kd [16] was roughly 0.06.

ATCCCCTTCCCAACCTCACCCAA (ssDNA) [Comp competitor (unlabeled)]: binds [17]; binds (RPA-CDE-core [18]).

TAGGGGAAGGGTTGGAGTGGGTT (structured_DNA, 18-carbon spacer (sp18) at 5' end) [Gq23 (FP)] was tested, and the Kd (RPA-C [10]; [23]) was 3.62, the Kd (RPA-CDE-core [3]; [23]) was 0.16 and the Kd (RPA-DE [19]) was 6.68. For the same binder, the Kd (RPA-AB [4]; [23]) was 0.44, the Kd (RPA-CDE-core [5]; [23]) was 0.55 and the Kd (RPA-AB [11]; [23]) was 3.28. The Kd (RPA-CDE-core [12]; [23]) was 11.9 µM, the Kd [20] was 0.37 and the Kd [21] was 0.85. The Kd [22] was ~0.04 0.02.
